From patent US20170088618A1

Assays:
[1] = target: cynomolgus PD-1 expressed on cells (cynomolgus) (UniProt B0LAJ3); test: flow cytometry on CHO cells expressing cynomolgus PD-1; detection with anti-human IgG Fc (PE GeoMFI); fit of a flat control curve
[2] = target: human PD-1 expressed on cells (human) (UniProt Q15116); test: flow cytometry on CHO cells expressing human PD-1; detection with anti-human IgG Fc (PE GeoMFI); fit of a flat control curve
[3] = target: human PD-1 expressed on cells (human) (UniProt Q15116); test: cell-based or functional assay

Sequence of UniProt Q15116 (Q15116 25-198 limits assumed): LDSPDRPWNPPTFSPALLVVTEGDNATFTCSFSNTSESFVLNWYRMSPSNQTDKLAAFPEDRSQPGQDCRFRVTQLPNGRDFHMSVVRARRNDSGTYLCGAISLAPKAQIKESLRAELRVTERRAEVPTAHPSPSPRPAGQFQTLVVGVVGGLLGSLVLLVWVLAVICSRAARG
Sequence of UniProt B0LAJ3 (B0LAJ3 entry or part of it limits assumed): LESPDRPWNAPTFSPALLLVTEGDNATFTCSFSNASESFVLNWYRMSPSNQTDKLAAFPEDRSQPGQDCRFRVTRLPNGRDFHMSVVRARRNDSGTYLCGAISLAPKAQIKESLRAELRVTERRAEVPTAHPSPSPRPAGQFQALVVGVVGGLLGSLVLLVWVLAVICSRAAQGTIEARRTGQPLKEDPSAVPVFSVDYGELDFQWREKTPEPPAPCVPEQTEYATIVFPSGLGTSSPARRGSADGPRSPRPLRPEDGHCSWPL

LogEC50 [1]	LogEC50 [2]	IL-17 and IFN-γ levels, human whole blood assay, EC50 [3] [nM]	Substance
-6.89 log10(nM)	-7.75 log10(nM)		huIgG1 Fc
		> 100	human IgG Fc fragment
